B1: Compound No. 71 (peptide)
peptide: FFXGDVFYGWYLCG
HELM: PEPTIDE1{[O=C(C[*:3])[*:2]].F.[meF].[CCCC[C@@H](C(=O)[*:2])N(C)[*:1]].[Sar].D.V.[meF].Y.[Sar].W.Y.L.C.G.[am]}$PEPTIDE1,PEPTIDE1,1:R3-14:R3$$$V2.0
SMILES: CCCC[C@H]1C(=O)N(C)CC(=O)N[C@@H](CC(=O)O)C(=O)N[C@@H](C(C)C)C(=O)N(C)[C@@H](Cc2ccccc2)C(=O)N[C@@H](Cc2ccc(O)cc2)C(=O)N(C)CC(=O)N[C@@H](Cc2c[nH]c3ccccc23)C(=O)N[C@@H](Cc2ccc(O)cc2)C(=O)N[C@@H](CC(C)C)C(=O)N[C@H](C(=O)NCC(N)=O)CSCC(=O)N[C@@H](Cc2ccccc2)C(=O)N(C)[C@@H](Cc2ccccc2)C(=O)N1C
notes: also called Compound 71
B2: Compound No. 2 (peptide)
peptide: {CH2CO}-F[NMeA]NPHHSWRW[NMeNle][NMeNle]LCG-NH2
modifications: thioether N-14
SMILES: CCCC[C@H]1C(=O)N(C)[C@@H](CCCC)C(=O)N[C@@H](CC(C)C)C(=O)N[C@H](C(=O)NCC(N)=O)CSCC(=O)N[C@@H](Cc2ccccc2)C(=O)N(C)[C@@H](C)C(=O)N[C@@H](CC(N)=O)C(=O)N2CCC[C@H]2C(=O)N[C@@H](Cc2c[nH]cn2)C(=O)N[C@@H](Cc2c[nH]cn2)C(=O)N[C@@H](CO)C(=O)N[C@@H](Cc2c[nH]c3ccccc23)C(=O)N[C@@H](CCCNC(=N)N)C(=O)N[C@@H](Cc2c[nH]c3ccccc23)C(=O)N1C
notes: also called Compound 2
B3: Compound No. 4 (peptide)
peptide: {CH2CO}-F[NMeA]NPLRSWRW[NMeNle][NMeNle]LCG-NH2
modifications: thioether N-14
SMILES: CCCC[C@H]1C(=O)N(C)[C@@H](CCCC)C(=O)N[C@@H](CC(C)C)C(=O)N[C@H](C(=O)NCC(N)=O)CSCC(=O)N[C@@H](Cc2ccccc2)C(=O)N(C)[C@@H](C)C(=O)N[C@@H](CC(N)=O)C(=O)N2CCC[C@H]2C(=O)N[C@@H](CC(C)C)C(=O)N[C@@H](CCCNC(=N)N)C(=O)N[C@@H](CO)C(=O)N[C@@H](Cc2c[nH]c3ccccc23)C(=O)N[C@@H](CCCNC(=N)N)C(=O)N[C@@H](Cc2c[nH]c3ccccc23)C(=O)N1C
notes: also called Compound 4
B4: Compound No. 86 (peptide)
peptide: FFXGDVFYGWALCG
HELM: PEPTIDE1{[O=C(C[*:3])[*:2]].F.[meF].[CCCC[C@@H](C(=O)[*:2])N(C)[*:1]].[Sar].D.V.[meF].Y.[Sar].W.A.L.C.G.[am]}$PEPTIDE1,PEPTIDE1,1:R3-14:R3$$$V2.0
SMILES: CCCC[C@H]1C(=O)N(C)CC(=O)N[C@@H](CC(=O)O)C(=O)N[C@@H](C(C)C)C(=O)N(C)[C@@H](Cc2ccccc2)C(=O)N[C@@H](Cc2ccc(O)cc2)C(=O)N(C)CC(=O)N[C@@H](Cc2c[nH]c3ccccc23)C(=O)N[C@@H](C)C(=O)N[C@@H](CC(C)C)C(=O)N[C@H](C(=O)NCC(N)=O)CSCC(=O)N[C@@H](Cc2ccccc2)C(=O)N(C)[C@@H](Cc2ccccc2)C(=O)N1C
notes: macrocyclic peptide cyclized via the ClAc moiety with the downstream cysteine; variant of Compound No. 71 (Ala at 11)
B5: Compound No. 87 (peptide)
peptide: FFXGDVFYGWYACG
HELM: PEPTIDE1{[O=C(C[*:3])[*:2]].F.[meF].[CCCC[C@@H](C(=O)[*:2])N(C)[*:1]].[Sar].D.V.[meF].Y.[Sar].W.Y.A.C.G.[am]}$PEPTIDE1,PEPTIDE1,1:R3-14:R3$$$V2.0
SMILES: CCCC[C@H]1C(=O)N(C)CC(=O)N[C@@H](CC(=O)O)C(=O)N[C@@H](C(C)C)C(=O)N(C)[C@@H](Cc2ccccc2)C(=O)N[C@@H](Cc2ccc(O)cc2)C(=O)N(C)CC(=O)N[C@@H](Cc2c[nH]c3ccccc23)C(=O)N[C@@H](Cc2ccc(O)cc2)C(=O)N[C@@H](C)C(=O)N[C@H](C(=O)NCC(N)=O)CSCC(=O)N[C@@H](Cc2ccccc2)C(=O)N(C)[C@@H](Cc2ccccc2)C(=O)N1C
notes: macrocyclic peptide cyclized via the ClAc moiety with the downstream cysteine; variant of Compound No. 71 (Ala at 12)
B6: Compound No. 85 (peptide)
peptide: FFXGDVFYGWYLCG
HELM: PEPTIDE1{[O=C(C[*:3])[*:2]].F.[meF].[CCCC[C@@H](C(=O)[*:2])N(C)[*:1]].[Sar].D.V.[meF].Y.G.W.Y.L.C.G.[am]}$PEPTIDE1,PEPTIDE1,1:R3-14:R3$$$V2.0
SMILES: CCCC[C@H]1C(=O)N(C)CC(=O)N[C@@H](CC(=O)O)C(=O)N[C@@H](C(C)C)C(=O)N(C)[C@@H](Cc2ccccc2)C(=O)N[C@@H](Cc2ccc(O)cc2)C(=O)NCC(=O)N[C@@H](Cc2c[nH]c3ccccc23)C(=O)N[C@@H](Cc2ccc(O)cc2)C(=O)N[C@@H](CC(C)C)C(=O)N[C@H](C(=O)NCC(N)=O)CSCC(=O)N[C@@H](Cc2ccccc2)C(=O)N(C)[C@@H](Cc2ccccc2)C(=O)N1C
notes: macrocyclic peptide cyclized via the ClAc moiety with the downstream cysteine; variant of Compound No. 71 (Gly instead of Sar at 9)
B7: Compound No. 82 (peptide)
peptide: FFXGDVFYGWYLCG
HELM: PEPTIDE1{[O=C(C[*:3])[*:2]].F.[meF].[CCCC[C@@H](C(=O)[*:2])N(C)[*:1]].[Sar].D.V.F.Y.[Sar].W.Y.L.C.G.[am]}$PEPTIDE1,PEPTIDE1,1:R3-14:R3$$$V2.0
SMILES: CCCC[C@H]1C(=O)N(C)CC(=O)N[C@@H](CC(=O)O)C(=O)N[C@@H](C(C)C)C(=O)N[C@@H](Cc2ccccc2)C(=O)N[C@@H](Cc2ccc(O)cc2)C(=O)N(C)CC(=O)N[C@@H](Cc2c[nH]c3ccccc23)C(=O)N[C@@H](Cc2ccc(O)cc2)C(=O)N[C@@H](CC(C)C)C(=O)N[C@H](C(=O)NCC(N)=O)CSCC(=O)N[C@@H](Cc2ccccc2)C(=O)N(C)[C@@H](Cc2ccccc2)C(=O)N1C
notes: Variant of Compound No. 71: mPhe7 to Phe (N-methyl removed)
B8: Compound No. 71 (peptide)
peptide: FFXGDVFYGWYLCG
HELM: PEPTIDE1{[O=C(C[*:3])[*:2]].F.[meF].[CCCC[C@@H](C(=O)[*:2])N(C)[*:1]].[Sar].D.V.[meF].Y.[Sar].W.Y.L.C.G.[am]}$PEPTIDE1,PEPTIDE1,1:R3-14:R3$$$V2.0
SMILES: CCCC[C@H]1C(=O)N(C)CC(=O)N[C@@H](CC(=O)O)C(=O)N[C@@H](C(C)C)C(=O)N(C)[C@@H](Cc2ccccc2)C(=O)N[C@@H](Cc2ccc(O)cc2)C(=O)N(C)CC(=O)N[C@@H](Cc2c[nH]c3ccccc23)C(=O)N[C@@H](Cc2ccc(O)cc2)C(=O)N[C@@H](CC(C)C)C(=O)N[C@H](C(=O)NCC(N)=O)CSCC(=O)N[C@@H](Cc2ccccc2)C(=O)N(C)[C@@H](Cc2ccccc2)C(=O)N1C
notes: Macrocyclic peptide of the Formula II series; X = norleucine backbone (N-methylated)
B9: Compound No. 83 (peptide)
peptide: FFXGDVFAGWYLCG
HELM: PEPTIDE1{[O=C(C[*:3])[*:2]].F.[meF].[CCCC[C@@H](C(=O)[*:2])N(C)[*:1]].[Sar].D.V.[meF].A.[Sar].W.Y.L.C.G.[am]}$PEPTIDE1,PEPTIDE1,1:R3-14:R3$$$V2.0
SMILES: CCCC[C@H]1C(=O)N(C)CC(=O)N[C@@H](CC(=O)O)C(=O)N[C@@H](C(C)C)C(=O)N(C)[C@@H](Cc2ccccc2)C(=O)N[C@@H](C)C(=O)N(C)CC(=O)N[C@@H](Cc2c[nH]c3ccccc23)C(=O)N[C@@H](Cc2ccc(O)cc2)C(=O)N[C@@H](CC(C)C)C(=O)N[C@H](C(=O)NCC(N)=O)CSCC(=O)N[C@@H](Cc2ccccc2)C(=O)N(C)[C@@H](Cc2ccccc2)C(=O)N1C
notes: Variant of Compound No. 71: Tyr8 to Ala
B10: Compound No. 80 (peptide)
peptide: FFXGDAFYGWYLCG
HELM: PEPTIDE1{[O=C(C[*:3])[*:2]].F.[meF].[CCCC[C@@H](C(=O)[*:2])N(C)[*:1]].[Sar].D.A.[meF].Y.[Sar].W.Y.L.C.G.[am]}$PEPTIDE1,PEPTIDE1,1:R3-14:R3$$$V2.0
SMILES: CCCC[C@H]1C(=O)N(C)CC(=O)N[C@@H](CC(=O)O)C(=O)N[C@@H](C)C(=O)N(C)[C@@H](Cc2ccccc2)C(=O)N[C@@H](Cc2ccc(O)cc2)C(=O)N(C)CC(=O)N[C@@H](Cc2c[nH]c3ccccc23)C(=O)N[C@@H](Cc2ccc(O)cc2)C(=O)N[C@@H](CC(C)C)C(=O)N[C@H](C(=O)NCC(N)=O)CSCC(=O)N[C@@H](Cc2ccccc2)C(=O)N(C)[C@@H](Cc2ccccc2)C(=O)N1C
notes: Variant of Compound No. 71: Val6 to Ala
B11: Compound No. 75 (peptide)
peptide: FFAGDVFYGWYLCG
HELM: PEPTIDE1{[O=C(C[*:3])[*:2]].F.[meF].[meA].[Sar].D.V.[meF].Y.[Sar].W.Y.L.C.G.[am]}$PEPTIDE1,PEPTIDE1,1:R3-14:R3$$$V2.0
SMILES: CC(C)C[C@@H]1NC(=O)[C@H](Cc2ccc(O)cc2)NC(=O)[C@H](Cc2c[nH]c3ccccc23)NC(=O)CN(C)C(=O)[C@H](Cc2ccc(O)cc2)NC(=O)[C@H](Cc2ccccc2)N(C)C(=O)[C@H](C(C)C)NC(=O)[C@H](CC(=O)O)NC(=O)CN(C)C(=O)[C@H](C)N(C)C(=O)[C@H](Cc2ccccc2)N(C)C(=O)[C@H](Cc2ccccc2)NC(=O)CSC[C@@H](C(=O)NCC(N)=O)NC1=O
notes: Variant of Compound No. 71: mNle3 to mAla

Positions of bridges follow the written chain, without caps; N, C: chain ends. Non-standard residues stand in square brackets, D forms with d. NMeNle = CCCC[C@H](NC)C(=O)O; NMeA = CN[C@@H](C)C(=O)O

One experiment addresses T1, human PD-L1 (human, UniProt Q9NZQ7 19-239, limits assumed).
T1 construct: also called Hu PD-L1; hPD-L1
As to the kind of experiment: cell binding assay, inhibition of human PD-L1/PD-1 binding on cells (cell format not given).
T1 sequence (Q9NZQ7 19-239 limits assumed): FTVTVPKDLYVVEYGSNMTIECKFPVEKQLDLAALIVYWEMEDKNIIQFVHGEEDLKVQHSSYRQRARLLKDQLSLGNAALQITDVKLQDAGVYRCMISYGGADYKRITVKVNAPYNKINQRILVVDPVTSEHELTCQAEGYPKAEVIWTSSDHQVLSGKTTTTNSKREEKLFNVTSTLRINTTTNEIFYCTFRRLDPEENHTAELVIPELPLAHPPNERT
In the case of B1, the IC50 turned out to be 10 nM.
Still for that read-out and setting: the result for {CH2CO}-FLIVIRDRVFRCG-NH2 (thioether N-12, also called Compound 99) [Compound No. 99] reads 1400 nM; that for B2, 43 nM.
Same read-out and setting: the result for B3 reads 15 nM.

In the next experiment the target is T2, hPDL1(19-239)-TVMV-His (human, UniProt Q9NZQ7 19-239).
T2 construct: The construct name says 19-239, the running text says amino acids 18-239; Expressed in HEK293T cells; also called PD-L1-His; PD-L1-TVMV-His
T2 sequence (Q9NZQ7 other isoform, or with tags, fused parts or gaps limits assumed): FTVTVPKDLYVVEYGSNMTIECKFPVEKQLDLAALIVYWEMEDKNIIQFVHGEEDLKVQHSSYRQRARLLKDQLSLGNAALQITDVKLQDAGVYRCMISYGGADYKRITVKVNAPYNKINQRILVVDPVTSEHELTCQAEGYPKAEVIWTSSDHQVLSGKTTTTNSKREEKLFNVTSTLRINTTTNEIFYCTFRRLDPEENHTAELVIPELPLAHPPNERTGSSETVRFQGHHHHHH
As to the kind of experiment: HTRF competition, PD-1-Ig (20 nM) binding to human PD-L1-His (10 nM). As to the method:
All binding studies were performed in an HTRF assay buffer consisting of dPBS supplemented with 0.1% (w/v) bovine serum albumin and 0.05% (v/v) Tween-20. […] PD-L1 fusion proteins from either human, cynomologous macaques, or mouse were used. HTRF detection was achieved using europium crypate-labeled anti-Ig monoclonal antibody (1 nM final) and allophycocyanin (APC) labeled anti-His monoclonal antibody (20 nM final). Antibodies were diluted in HTRF detection buffer and 5 μl was dispensed on top of binding reaction. The reaction was allowed to equilibrate for 30 minutes and signal (665 nm/620 nm ratio) was obtained using an EnVision fluorometer. […]
HTRF experiments were performed essentially as outlined supra. Variant macrocyclic peptides were created as outlined herein.
The molecule B4 had a half-maximal inhibitory concentration (IC50) of 820 nM.
Same read-out and setting: as for B5, the figure is 25 nM; as for B6, 191 nM.

The target of another experiment is T3, human PD-L1 (human, UniProt Q9NZQ7 19-239, limits assumed).
T3 construct: also called Hu PD-L1; hPD-L1
As to the kind of experiment: cell binding assay, inhibition of human PD-L1/PD-1 binding (cell format not given).
T3 sequence (Q9NZQ7 19-239 limits assumed): as the sequence (Q9NZQ7 19-239 limits assumed) above
Molecule B7 returned an IC50 of 203 nM.
Same read-out and setting: as for B8, the figure is 10 nM; as for B9, 75 nM; as for B10, 723 nM.
In turn, B11 yielded a concentration for half-maximal inhibition (IC50) of 438 nM.

Values taken from patent US20140294898A1 (published 2014).
